Reference: patent publication US8129336B1, “Inhibitor of the uracil-DNA glycosylase enzyme and uses thereof” (Consejo Superior de Investigaciones Cientificas, priority 2005, dated 2012)
Entries after “also recorded” stand apart in the source; their conditions may differ.

T1: UDG of B. subtilis (Bacillus subtilis, UniProt P39615)
T1 construct: endogenous in cells; host or cells: B. subtilis 110NA [pPR53.p56FLAG] lysate; UDG is the cell's own protein; only p56FLAG is plasmid-encoded
T1 sequence (P39615 whole entry, looked up): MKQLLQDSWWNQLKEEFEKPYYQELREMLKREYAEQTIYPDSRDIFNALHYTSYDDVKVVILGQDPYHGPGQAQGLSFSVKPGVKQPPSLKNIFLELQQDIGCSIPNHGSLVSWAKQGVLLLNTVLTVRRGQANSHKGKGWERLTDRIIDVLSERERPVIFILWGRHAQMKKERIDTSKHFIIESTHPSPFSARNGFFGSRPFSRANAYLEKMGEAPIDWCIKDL


Key:
[1] = molecular target: human UNG2 enzyme (Homo sapiens, UniProt P13051); conditions: cited from earlier work
Sequence of human UNG2 enzyme (P13051 whole entry): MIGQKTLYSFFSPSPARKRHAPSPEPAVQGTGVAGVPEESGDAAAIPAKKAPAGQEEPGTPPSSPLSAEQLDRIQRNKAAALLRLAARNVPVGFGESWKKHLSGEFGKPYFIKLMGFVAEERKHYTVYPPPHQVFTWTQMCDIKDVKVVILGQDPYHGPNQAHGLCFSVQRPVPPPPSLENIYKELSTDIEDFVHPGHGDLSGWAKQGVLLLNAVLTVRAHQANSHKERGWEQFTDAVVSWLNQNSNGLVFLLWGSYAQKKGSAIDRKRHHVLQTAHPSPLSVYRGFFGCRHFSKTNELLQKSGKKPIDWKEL

[2] = molecular target: T1, UDG of B. subtilis; assay: Affinity chromatography on anti-FLAG M2 column, co-elution with p56FLAG; type: binding; conditions: extract of B. subtilis 110NA[pPR53.p56FLAG]; elution with FLAG peptide; peptide mass fingerprinting
Procedure: In order to analyse whether the UDG enzyme is a cellular target of protein p56, affinity chromatography assays were performed. Briefly, the B. subtilis 110NA [pPR53.p56FLAG] strain was grown in LB medium with phleomycin (0.8 μg/ml) at 30° C. to an OD560 equivalent to 10^8 viable cells per ml. The culture was concentrated 10-fold in TBS buffer (50 mM Tris-HCl, pH 7.5, 150 mM NaCl) and was lysed using the French press (20,000 psi). The lysate was centrifuged at 7,000 rpm and 4° C. in the Sorvall-SS.34 rotor for 10 minutes. The supernatant was loaded in an anti-FLAG M2 column (Sigma). The proteins bound to the column were eluted with the TBS buffer containing the FLAG peptide (500 μg/ml) (Sigma). The eluted proteins were precipitated with acetone, re-suspended in the loading buffer (60 mM Tris-HCl, pH 6.8, 2% SDS, 5% β-mercaptoethanol, 30% glycerol) and separated by electrophoresis in polyacrylamide/Tricine/SDS gels (Schagger and von Jagow (1987) Anal. Biochem. 166: 368-379). The gel was stained with SyproRuby (Molecular Probes). As a negative control, an extract from the 110NA[pPR53] strain was used. In a second experiment, protein p56 (2 μg) was incubated with the UDG enzyme of E. coli (0.2 μg, New England Biolabs). After 15 minutes at ambient temperature, the reaction was analysed by electrophoresis in native polyacrylamide gels (16%). The gel was stained with SpyroRuby.

| Molecule | blocking of UDG activity of human UNG2 [1] | interaction / co-elution with UDG enzyme [2] |
| --- | --- | --- |
| UGI: UGI protein encoded by the PBS2 bacteriophage, known inhibitor of UDG (protein, UniProt P14739 1-84, looked up) Uracil-DNA glycosylase …: MTNLSDIIEKETGKQLVIQESILMLPEEVEEVIGNKPESDILVHTAYDESTDENVMLLTSDAPEYKPWALVIQDSNGENKIKML | blocks the UDG activity of the human UNG2 enzyme | – |
| p56FLAG: p56 protein that contains amino acid sequence DYKDDDDK (FLAG peptide) fused to the C-terminal end (protein) MVQNDFVDSYDVTMLLQDDDGKQYYEYHKGLSLSDFEVLYGNTADEIIKLRLDKVLDYKDDDDK | – | protein D was identified to be the UDG enzyme; also recorded: interacts with the UDG enzyme |
